These results are taken from article PMC3931528.

As a reminder, the Kd is a measure of binding affinity in units of concentration. The low end stands for a tighter complex, the high end for a looser complex.

The data set concerns the target PTB RRM1 (UniProt P26599 41-163). Briefly: ITC. For orientation: In ITC the heat of successive injections is recorded.

PTB RRM1, sequence (P26599 41-163): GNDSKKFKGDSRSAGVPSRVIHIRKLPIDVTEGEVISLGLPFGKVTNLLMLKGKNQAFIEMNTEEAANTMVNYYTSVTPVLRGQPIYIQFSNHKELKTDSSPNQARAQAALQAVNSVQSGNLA

The molecule UCUCU (ssRNA) [CU 5-mer RNA] came in with a Kd of 24.7 µM.
